From paper PMC4471349 come the findings set out here.

The target in the assay is pVP28-Agα1p displayed on the cell surface of P. pastoris (white spot syndrome virus (WSSV)). The experiment in a line: yeast agglutination; two yeast clones mixed in PBS with 1% BSA at initial OD600 = 0.7, left to stand 1 h; percent agglutination from the fall in OD600; cells induced with methanol 24-96 h.

In the case of “mPmRab7-Agα1p displayed on the cell surface of P. pastoris (domain or fragment)”, the percent agglutination (48 h induction) was determined as 38% and the percent agglutination (longer induction times) is 20%.
